Measured values reported in patent publication US20120094909A1 (Bristol-Myers Squibb, published 2012).
Like-named read-outs stand apart in the source and are kept apart here.

How the values were obtained:
[1] = biological target: T1, human serum albumin (human, UniProt P02768 25-609); experiment: SPR (Biacore), albumin captured on chip, SABA in flow
T1 construct: also called HSA
Procedure: (§1) The kinetics of selected SABA clones purified from HTPP and/or midscaled material described in Examples 5A and 5B were determined by capturing the respective serum albumin (HSA/RhSA/MuSA) on the surface of a Biasensor CMS chip and flowing a concentration series of SABAs over both the reference flow cell and the captured albumins. In addition, binding to albumin was carried out under various pH conditions ranging from pH 5.5 to pH 7.4.

[2] = biological target: T2, rhesus serum albumin (rhesus, UniProt Q28522 17-600); experiment: as above
T2 construct: also called RhSA
Procedure: as §1

[3] = biological target: T3, murine serum albumin (mouse, UniProt P07724 25-608); experiment: SPR, captured albumin
T3 construct: also called MuSA; mouse serum albumin
Procedure: as §1

[4] = biological target: T4, human PCSK9 (proprotein convertase subtilisin kexin type 9) (human, UniProt Q8NBP7 31-692); experiment: cell-based or functional assay
[5] = biological target: T4, human PCSK9 (proprotein convertase …); experiment: PCSK9:EGFA FRET at 5 nM PCSK9, competitor EGFA peptide
[6] = biological target: T5, human PCSK9 (proprotein convertase subtilisin kexin type 9) (human, UniProt Q8NBP7 31-692); experiment: KinExA, solution phase
T5 construct: Directly immobilized (SPR ProteOn), biotinylated (BLI), or in solution, depending on the assay; also called hPCSK9
Procedure: Due to technical limitations, the lowest concentration of Adnectins that could be tested was 1 nM.

[7] = biological target: T5, human PCSK9 (proprotein convertase …); experiment: ITC, 37 C, average of 3 experiments
Procedure: Solution phase binding was measured in 25 mM HEPES, pH 7.41, 150 mM NaCl at 37° C.

[8] = biological target: T5, human PCSK9 (proprotein convertase …); experiment: BLI, biotinylated hPCSK9 on sensor tips
[9] = biological target: T5, human PCSK9 (proprotein convertase …); experiment: BLI Octet Red, 37 C
Procedure: (§2) Tips were then immersed into a buffer-only well for observation of Adnectin dissociation. Experiments were performed in a temperature controlled environment at either 25 or 37° C., and the oscillation speed was set at 1500 rpm.
(§3) Binding interaction analysis was performed using proprietary software from Fortebio (Fortebio Data Analysis Software version 6.3.0.36). Global fits were performed for all samples, using a 1:1 binding model. The nature of these global fits constrained all values of concentration to a single pair of association and dissociation rates that were themselves constrained to each other. Affinities (KD), association and dissociation rates were averaged over the various loading levels used in the analysis.

[10] = biological target: T5, human PCSK9 (proprotein convertase …); experiment: FRET, competitor EGFA peptide
Excerpt: (§4) Table 11 summarizes the overall data from these three FRET assays.

[11] = biological target: T6, cynomolgus monkey PCSK9 (cynomolgus monkey, UniProt A0A7N9D9N8 150-747); experiment: FRET, competitor EGFA peptide
T6 construct: also called cyno PCSK9; cPCSK9
Excerpt: as §4

[12] = biological target: T4, human PCSK9 (proprotein convertase …); experiment: PCSK9:ATI-972 FRET at 5 nM human PCSK9, competitor biotinylated ATI-972
[13] = biological target: T4, human PCSK9 (proprotein convertase …); experiment: ITC, 37 C
[14] = biological target: T4, human PCSK9 (proprotein convertase …); experiment: cell-based or functional assay; remark: listed apart in the source
[15] = biological target: T4, human PCSK9 (proprotein convertase …); experiment: PCSK9:EGFA FRET, competitor EGFA peptide
[16] = biological target: T5, human PCSK9 (proprotein convertase …); experiment: SPR ProteOn, 25 C
Procedure: (§5) The binding characteristics were characterized by Surface Plasmon Resonance (SPR). […] This allowed kinetic determination in the absence of regeneration. […] Evaluation of the kinetic parameters was performed using the Langmuir interaction model and constant parameter fitting with the ProteOn Manager software.

[17] = biological target: T7, cynomolgus monkey PCSK9 (cynomolgus monkey, UniProt A0A7N9D9N8 150-747); experiment: SPR ProteOn, 25 C
Procedure: as §5

[18] = biological target: T5, human PCSK9 (proprotein convertase …); experiment: cell-based or functional assay; remark: listed apart in the source
[19] = biological target: T5, human PCSK9 (proprotein convertase …); experiment: FRET, competitor ATI000972
Excerpt: as §4

[20] = biological target: T7, cynomolgus monkey PCSK9; experiment: FRET, competitor EGFA peptide
Excerpt: as §4

[21] = biological target: T5, human PCSK9 (proprotein convertase …); experiment: SPR ProteOn, PCSK9 immobilized, 25 C
Procedure: as §5

[22] = biological target: T7, cynomolgus monkey PCSK9; experiment: SPR ProteOn, PCSK9 immobilized, 25 C
Procedure: as §5

[23] = biological target: T5, human PCSK9 (proprotein convertase …); experiment: FRET direct binding, anti-his6 antibody
Excerpt: as §4

[24] = biological target: T4, human PCSK9 (proprotein convertase …); experiment: SPR (ProteOn), 25 C
[25] = biological target: T8, Cynomolgus PCSK9 (cynomolgus monkey, UniProt A0A7N9D9N8 150-747); experiment: SPR (ProteOn), PCSK9 immobilized directly, 25 C
T8 construct: also called cyno PCSK9; cPCSK9
Procedure: as §5

[26] = biological target: T4, human PCSK9 (proprotein convertase …); experiment: BLI (Octet Red), 37 C
Procedure: as §2, §3

B1: SABA3.1 (designed binder)
chain: MGVSDVPRDLEVVAATPTSLLISWSNDGPGLSYYRITYGETGGNSPVQEFTVPSSQTTATISGLKPGVDYTITVYAVSYYTKKAYSAGPISINYRTEIDKPSQHHHHHH
notes: also called clone 1245H07
In the case of B1, the Kd [1] is reported as 863 nM, the koff [1] is reported as 0.0682 s⁻¹ and the Kd [2] is reported as 431 nM. The koff [2] was 0.0337 s⁻¹.

B2: SABA3.1 (designed binder)
chain: MGVSDVPRDLEVVAATPTSLLISWSNDGPGLSYYRITYGETGGNSPVQEFTVPSSQTTATISGLKPGVDYTITVYAVSYYTKKAYSAGPISINYRTEIDKPSQHHHHHH
notes: also called clone 1245H07
B2: no binding [3].

B3: SABA4.1 (designed binder)
chain: MGVSDVPRDLEMVAATPTSLLISWEDDSYYSRYYRITYGETGGNSPVQEFTVPSDLYTATISGLKPGVDYTITVYAVTYDVTDLIMHEPISINYRTEIDKPSQHHHHHH
B3: no binding [3].

B4: SABA1.1 (designed binder)
chain: MGVSDVPRDLEVVAATPTSLLISWHSYYEQNSYYRITYGETGGNSPVQEFTVPYSQTTATISGLKPGVDYTITVYAVYGSKYYYPISINYRTEIDKPSQHHHHHH
notes: core 1 10Fn3 with His6; also called clone 1318H04
B4: no binding [3].

B5: ATI001174 (designed binder)
chain: MGVSDVPRDLEVVAATPTSLLISWVPPSDDYGYYRITYGETGGNSPVQEFTVPIGKGTATISGLKPGVDYTITVYAVEFPWPHAGYYHRPISINYRTEIEKPCQ
modifications: PEG on the cysteine of the C-terminal tail (EIEKPCQ)
notes: also called ATI-1174; ATI1174
For B5, the “PCSK9-induced LDLR depletion in HepG2 cells, EC50” value [4] was 8 nM, the “inhibition of PCSK9-AF647 intracellular fluorescence in HepG2 cells, EC50” value [4] was 10 nM and the EC50 [5] was 1.9 nM.

B6: ATI001174 (designed binder)
chain: MGVSDVPRDLEVVAATPTSLLISWVPPSDDYGYYRITYGETGGNSPVQEFTVPIGKGTATISGLKPGVDYTITVYAVEFPWPHAGYYHRPISINYRTEIEKPCQ
modifications: PEGylated on the cysteine of the C-terminal EIEKPCQ tail
notes: PEGylated, non-His-tagged cysteine mutant of 2013E01; also called ATI-1174; ATI1174
Binder B6 has a Kd [6] of 0.223 nM, a Ka [7] of 7.5e+08 M⁻¹ and a Kd [7] of 1.3 nM. The “Stoichiometry (N)” value [7] was 0.857, the ΔH [7] was -29.9 kcal/mol and the ΔS [7] was -55.8 cal/mol °C. It also gave a Kd [8] of 7.4 nM, a koff [8] of 0.000901 s⁻¹ and a kon [8] of 126000 M⁻¹ s⁻¹.

B7: 2382D05 (designed binder)
chain: MGVSDVPRDLEVVAATPTSLLISWDAPADGGYGYYRITYGETGGNSPVQEFTVPVSKGTATISGLKPGVDYTITVYAVEFDFPGAGYYHRPISINYRTEIDKPSQHHHHHH
notes: Anti-PCSK9 Adnectin, His6-tagged; Same entry as 2451B06
In the case of B7, the Kd [9] is reported as 0.314 nM, the EC50 [10] is reported as 2.6 nM and the EC50 [11] is reported as 57.8 nM. For the same binder, the Kd [8] was 0.314 nM, the koff [8] was 0.000157 s⁻¹ and the kon [8] was 505000 M⁻¹ s⁻¹.

B8: 2451B06 (designed binder)
chain: MGVSDVPRDLEVVAATPTSLLISWDAPADGGYGYYRITYGETGGNSPVQEFTVPVSKGTATISGLKPGVDYTITVYAVEFDFPGAGYYHRPISINYRTEIDKPSQHHHHHH
notes: Anti-PCSK9 Adnectin, His6-tagged; also called 2451B06 (equivalent to 2382D05)
For B8, the EC50 [10] was 4.5 nM and the EC50 [11] was 57.8 nM.

B9: ATI001114 (designed binder)
chain: MGVSDVPRDLEVVAATPTSLLISWVPPSDDYGYYRITYGETGGNSPVQEFTVPIGKGTATISGLKPGVDYTITVYAVEFPWPHAGYYHRPISINYRTGSGCHHHHHH
modifications: 40 kDa two-branched PEG on the cysteine of the C-terminal tail (GSGC)
notes: also called ATI1114
With B9 the EC50 [12] was 0.8 nM.

B10: SABA2.1 (designed binder)
chain: MGVSDVPRDLEVVAATPTSLLISWPKYDKTGHYYRITYGETGGNSPVQEFTVPTRQTTATISGLKPGVDYTITVYAVSKDDYYPHEHRPISINYRTEIDKPSQHHHHHH
B10: no binding [3].

B11: 1784F03 (designed binder)
chain: MGVSDVPRDLEVVAATPTSLLISWRPPIHAYGYYRITYGETGGNSPVQEFTVPIVEGTATISGLKPGVDYTITVYAVEYTFKHSGYYHRPISINYRTEIDKPSQHHHHHH
In the case of B11, the Kd [13] is reported as 3.8 nM, the “DiI-LDL uptake in HepG2 cells, EC50” value [4] is reported as 210 nM and the “EC50 (nM), PCSK9-induced LDLR depletion from HepG2 cell surface” value (“EC50 (nM), PCSK9-induced LDLR depletion” for short) [4] is reported as 16 nM. The “percentage of PCSK9 inhibition at 75 nM” value [4] was 150%, the “LDLR Depletion (% inhibition at 75 nM)” value [14] was 150% and the “LDLR Depletion EC50” value [14] was 26 nM. The EC50 [15] was 2 nM.

B12: 1922G04 (designed binder)
chain: MGVSDVPRDLEVVAATPTSLLISWRPPSHAYGYYRITYGETGGNSPVQEFTVPIGKGTATISGLKPGVDYTITVYAVEYPWKGSGYYHRPISINYRTEIDKPSQHHHHHH
notes: Anti-PCSK9 Adnectin, His6-tagged; also called ATI001057; ATI-1057
With B12 the Kd [16] was 0.09 nM, the Kd [17] was 15 nM and the “LDLR Depletion EC50” value [18] was 10 nM. For the same binder, the IC50 [19] was 2 nM, the EC50 [10] was 1.2 nM and the IC50 [10] was 1.2 nM. It also gave an EC50 [20] of 26.6 nM, a Kd [21] of 0.094 nM and a koff [21] of 5.08e-05 s⁻¹. It also gave a kon [21] of 541000 M⁻¹ s⁻¹, a Kd [22] of 15 nM and a koff [22] of 0.007 s⁻¹. It also gave a kon [22] of 465000 M⁻¹ s⁻¹, a Kd [8] of 0.255 nM and a koff [8] of 0.00014 s⁻¹. The kon [8] was 532000 M⁻¹ s⁻¹ and the EC50 [23] was 2.5 nM.

B13: 1813E02 (designed binder)
chain: MGVSDVPRDLEVVAATPTSLLISWSPPANGYGYYRITYGETGGNSPVQEFTVPVGRGTATISGLKPGVDYTITVYAVEYTYKGSGYYHRPISINYRTEIDKPSQHHHHHH
In the case of B13, the Kd [13] is reported as under 2 nM, the “LDLR Depletion EC50” value [14] is reported as 16 nM and the EC50 [15] is reported as 1.3 nM.

B14: 2012A04 (designed binder)
chain: MGVSDVPRDLEVVAATPTSLLISWRPPSNGHGYYRITYGETGGNSPVQEFTVPVNEGTATISGLKPGVDYTITVYAVEFPFKWSGYYHRPISINYRTEIDKPSQHHHHHH
With B14 the “DiI-LDL uptake in HepG2 cells, EC50” value [4] was 130 nM, the “EC50 (nM), PCSK9-induced LDLR depletion” value [4] was 7.78 nM and the “percentage of PCSK9 inhibition at 75 nM” value [4] was 190%. For the same binder, the Kd [24] was 0.25 nM, the “LDLR Depletion (% inhibition at 75 nM)” value [14] was 144% and the “LDLR Depletion EC50” value [14] was 12 nM. For the same binder, the EC50 [15] was 2.1 nM and the Kd [25] was 24 nM.

B15: 2013E01 (designed binder)
chain: MGVSDVPRDLEVVAATPTSLLISWVPPSDDYGYYRITYGETGGNSPVQEFTVPIGKGTATISGLKPGVDYTITVYAVEFPWPHAGYYHRPISINYRTEIDKPSQHHHHHH
notes: unmodified (not PEGylated) Adnectin; also called ATI001081
With B15 the “DiI-LDL uptake in HepG2 cells, EC50” value [4] was 160 nM, the “EC50 (nM), PCSK9-induced LDLR depletion” value [4] was 12.4 nM and the “PCSK9-induced LDLR depletion in HepG2 cells, EC50” value [4] was 9 nM. For the same binder, the “percentage of PCSK9 inhibition at 75 nM” value [4] was 152%, the Kd [24] was 0.29 nM and the Kd [26] was 1.51 nM. The “LDLR Depletion (% inhibition at 75 nM)” value [14] was 166%, the “LDLR Depletion EC50” value [14] was 10 nM and the EC50 [15] was 1.6 nM. For the same binder, the Kd [25] was 8 nM, the EC50 [5] was 3.7 nM and the EC50 [12] was 2.8 nM.
